Test results published in patent US20180193423A1 (LONGEVITY BIOTECH, published 2018).
Where no end group is shown, it is not given here. [ ]: non-standard residue; d: D form. β3hT = C[C@@H](O)[C@H](N)CC(=O)O; β3hL = CC(C)C[C@H](N)CC(=O)O; β3hK = NCCCC[C@H](N)CC(=O)O; β3hV = CC(C)[C@H](N)CC(=O)O

Legend:
Experiment in all cases: cell-based or functional assay
VPAC1 receptor [1] = molecular target: T1, VPAC1 receptor (UniProt P32241 31-457, limits assumed)
T1 sequence (looked up): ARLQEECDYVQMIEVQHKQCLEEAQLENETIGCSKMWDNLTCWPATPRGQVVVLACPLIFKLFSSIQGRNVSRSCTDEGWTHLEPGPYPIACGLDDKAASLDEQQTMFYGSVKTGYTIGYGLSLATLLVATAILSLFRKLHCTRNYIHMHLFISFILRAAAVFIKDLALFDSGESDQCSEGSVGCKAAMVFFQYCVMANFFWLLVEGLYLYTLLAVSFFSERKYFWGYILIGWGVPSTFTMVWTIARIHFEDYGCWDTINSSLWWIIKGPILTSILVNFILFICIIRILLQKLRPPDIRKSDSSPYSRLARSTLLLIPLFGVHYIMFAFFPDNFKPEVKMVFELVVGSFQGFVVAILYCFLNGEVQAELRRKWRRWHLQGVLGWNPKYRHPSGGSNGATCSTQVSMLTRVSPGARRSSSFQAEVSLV

VPAC1 receptor [2] = molecular target: T1, VPAC1 receptor; remark: listed apart in the source
VPAC2 receptor = molecular target: T2, VPAC2 receptor (UniProt P41587 24-438, limits assumed)
T2 sequence (looked up): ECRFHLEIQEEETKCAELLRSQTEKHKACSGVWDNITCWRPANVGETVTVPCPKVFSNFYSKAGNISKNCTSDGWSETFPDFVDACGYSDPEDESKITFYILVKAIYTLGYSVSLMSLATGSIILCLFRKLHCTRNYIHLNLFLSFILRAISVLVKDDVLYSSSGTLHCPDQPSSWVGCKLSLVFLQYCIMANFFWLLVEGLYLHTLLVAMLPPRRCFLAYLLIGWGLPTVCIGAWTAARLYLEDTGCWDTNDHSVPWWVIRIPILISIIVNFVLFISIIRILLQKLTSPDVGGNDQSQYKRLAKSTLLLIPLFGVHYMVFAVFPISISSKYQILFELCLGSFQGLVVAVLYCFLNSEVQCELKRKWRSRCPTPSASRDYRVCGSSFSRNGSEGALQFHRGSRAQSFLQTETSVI

EC50 of ligand mediated receptor internalization (chemiluminescent signal, PathHunter eXpress CHO-K1 VIPR1 cells) (VPAC1 receptor [1]): 0.0102 µM | EC 50 vpac1 (Molar), cell-based cAMP assay (VPAC1 receptor [2]): 0.00217 µM | EC50 vpac2 (Molar), cell-based cAMP assay (VPAC2 receptor): 8260 µM
B1: LBT-V101 (peptide)
peptide: HSDAVFTDNY[β3hT]RLR[β3hK]QLA[β3hV]KKY[β3hL]NAI[β3hL]N
modifications: not fully specified (C-terminus); printed as HSDAVFTDNYtRLRkQLAvKKYlNAIlN
